According to US12037395 (IMMVIRA, dated 2024):
Residue numbers refer to the chain shown, from its start.

B1: mouse anti-PD-1 monoclonal antibody D1F1 (antibody, mouse IgG1, kappa, V domains shown)
VH: EVMLVESGGGLVKPGGSLKLSCAASGFTFSSNTMSWVRQTPEKRLEWVAAISGGGVNTYYPDSVKGRFTISRDNARNTLYLQMSSLRSEDTALYYCARHGNYNYYGMDYWGQGTSVTVSS
VL: not shown
notes: Purified from hybridoma; Constant regions tied only generically to 'mouse antibodies'
B2: mouse anti-PD-1 monoclonal antibody D2C2 (antibody, mouse IgG1, kappa, V domains shown)
VH: B1 VH with N57D
VL: not shown
notes: as for B1
B3: mouse anti-PD-1 monoclonal antibody C1C5 (antibody, mouse IgG1, kappa, V domains shown)
VH: QIQLVQSGPELKKPGETVKISCKASGYTFTNYGINWVKQAPGKGLKWMGWINTYSGEPTYSDDFKGRFAFSLETSASTAYLQINNLKNEDTSTYFCVRQGDFDYEDAMDYWGQGTSVTVSS
VL: DVLMTQSPLSLPVSLGDQASISCRSSQSIVHSNGHIYLEWYLQKPGQSPKLLIYKVSKRFSGVPDRFSGSGSGTDFTLKISRVEAEDLGVYYCFQGSHGTFGGGTKLEIKR
notes: as for B1
B4: mouse anti-PD-1 monoclonal antibody C1F4 (antibody, mouse IgG1, kappa, V domains shown)
VH: QVQLQQSGAELVRPGVSVKISCKGSGYKFTDYAMHWVRQSHAKSLEWIGIISTYSGDVSFNQNFKGKATMTVDKSSSTAYMELARLTSEDSAIYYCSRLGITAGFAYWGQGTLVTVSA
VL: DIVMTQSQKFMSTSVGDRVTITCKASQNVRTAVAWYQQKPGQSPKALIYLASNRHTGVPDRFTGSGSGTDFTLTISNVQSKDLADYFCLQHWNYPYTFGGGTKLEIKR
notes: as for B1
B5: mouse anti-PD-1 monoclonal antibody C1E2 (antibody, mouse IgG1, kappa, V domains shown)
VH: QVQLQQSGAELVRPGTSVKISCKASGYTFTNYWLGWVKQRPGHGLEWIGDIYPGGGYTNYNENFKGKATLTADTSSSTAYMQLSSLTSEDSAVFFCARGYGTNYWYFDVWGAGTTVTVSS
VL: SIVMTQTPKFLLVSAGDRVTITCKASQSVSNDVAWYQQKPGQSPKLLIYYAFHRYTGVPDRFTGSGYGTDFTFTISTVQAEDLAVYFCQQDYSSPYTFGGGTKLEIKR
notes: as for B1
B6: mouse anti-PD-1 monoclonal antibody C1F5 (antibody, mouse IgG1, kappa, V domains shown)
VH: EVQLVESGGGLVKPGGSLKLSCAASGFAFSSYDMSWVRQTPEKRLEWVAYITGGGSSSFYPDTVKGRFTISRDNSKNTLYLQMTSLRSEDTAMYYCASPYLSYFDYWGQGTTLTVSS
VL: DIVLTQSPATLSVTPGDSVSLSCRASQSISNNLHWYQQKSHESPRLLIKYGSQSMSGIPSRFSGSGSGTDFTLVINSVETEDFGMYFCQQSNSWPLTFGAGTKLELKR
notes: as for B1
B7: mouse anti-PD-1 monoclonal antibody C1E1 (antibody, mouse IgG1, kappa)
heavy: EVMLVESGGGLVKPGGSLKLSCAASGFTFSSYLMSWVRQTPEKRLEWVATISGGGGDTYFPDSVKGRFTISRDNVKNNLYLQMSSLRSEDTALYYCVRFGGAGYYWYFDVWGAGTTVTVSSAKTTPPSVYPLAPGSAAQTNSMVTLGCLVKGYFPEPVTVTWNSGSLSSGVHTFPAVLQSDLYTLSSSVTVPSSTWPSETVTCNVAHPASSTKVDKKIVPRDCGCKPCICTVPEVSSVFIFPPKPKDVLTITLTPKVTCVVVDISKDDPEVQFSWFVDDVEVHTAQTQPREEQFNSTFRSVSELPIMHQDWLNGKEFKCRVNSAAFPAPIEKTISKTKGRPKAPQVYTIPPPKEQMAKDKVSLTCMITDFFPEDITVEWQWNGQPAENYKNTQPIMDTDGSYFVYSKLNVQKSNWEAGNTFTCSVLHEGLHNHHTEKSLSHSPGK
light: not shown
notes: Purified from hybridoma; also called clone C1E1
B8: mouse anti-PD-1 monoclonal antibody D1F2 (antibody, mouse IgG1, kappa, V domains shown)
VH: EVMLVESGGGLVKPGGSLKLSCAASGFTFSSYTMSWVRQTPEKRLEWVATISGGGSNIYYPDSVEGRFTVSRDNARNTLYLHMSSLRSEDTALYYCVLNYAYAMDYWGQGTSVTVSS
VL: DIQMTQTTSSLSASLGDRVTISCRASQDISNFLNWYQQKPDGTVKLLIYYTSRLQSGVPSRFSGTGSGTDYSLTISNLEQEDLATYFCQQGSSLPWTFGGGTKLEIKR
notes: as for B1
B9: mouse anti-PD-1 monoclonal antibody C1A1 (antibody, mouse IgG1, kappa, V domains shown)
VH: QVTLKESGPGILKPSQTLSLTCSFSGFSLSTSGMGVGWIRQPSGKGLEWLAHIWWDDDKFYNPSLKSQLTISKDTSRNQVFLKITSVDTADTATYYCARTGGFITTGYWYFDVWGAGTTVTVSS
VL: B8 VL with F32Y, N34I, P40T, V44L, Q55H, T65S, L83I, G91H, S92K, S93T
notes: as for B1
B10: mouse anti-PD-1 monoclonal antibody D1A1 (antibody, mouse IgG1, kappa, V domains shown)
VH: EVMLVESGGGLVKPGGSLKLSCAASGFTFSNYAMSWVRQTPEKRLEWVATISGGGGNIYYPDSVKGRFTISRDNARNTLYLQMSSLRSEDTALYYCASPYANYVWYLDVWGAGTTVTVSS
VL: B8 VL with F32Y, Q55H, T65S, Y71F, Q80E, L83I, G91S, S92N, S93A
notes: as for B1

What follows are binders tested against T1, biotin-labeled human PD-1 Fc protein (human, biotin-labeled (sites not given)) (assay: capture ELISA: antibody captured by anti-IgG Fc, biotin PD-1-Fc 60 nM).
T1 construct: also called PD-1-Fc-biotin
B1 showed an EC50 of 0.24 nM. B2 was tested, and the EC50 was 0.2 nM. In the case of B3, the EC50 is reported as 0.16 nM. In the case of B4, the EC50 is reported as 0.25 nM. Binder B5 has an EC50 of 0.2 nM. Work on B6 yielded an EC50 of 0.16 nM. B7 showed an EC50 of 0.16 nM. B8 gave an EC50 of 0.19 nM. Binder B9 has an EC50 of 0.18 nM. With B10 the EC50 was 0.2 nM.

What follows are binders tested against T1, biotin-labeled human PD-1 Fc protein (assay: competition ELISA: blocks biotin PD-1-Fc binding to coated Nivolumab (competitor)).
Experimental: The next day, plates were washed with wash buffer, and blocked with 5% non-fatty milk in PBST for 2 hours at 37° C. […] Plates were finally washed using wash buffer. TMB was added and the reaction was stopped using 1M H_2SO_4, and the absorbance was read at 450 nm. Data were analyzed using Graphpad Prism software and $IC50$ values were reported.
For B1, the IC50 was 2.13 nM. B2 gave an IC50 of 1.89 nM. Binder B3 has an IC50 of 1.34 nM. Work on B4 yielded an IC50 of 2.26 nM. Work on B5 yielded an IC50 of 1.49 nM. Binder B6 has an IC50 of 0.87 nM. For B7, the IC50 was 1.1 nM. Binder B8 has an IC50 of 1.4 nM. Work on B9 yielded an IC50 of 1.4 nM. Work on B10 yielded an IC50 of 1.28 nM.

What follows are binders tested against human PD-1 on PD-1 Effector Cell Line (Genscript, GS-J2/PD-1) (human, UniProt Q15116 25-288) (assay: cell-based or functional assay).
For B1, the “Reporter Activation (EC50, nM) human PD-1 cell (NFAT-luc)/human PD-L1 cell” value (shortened to “Reporter Activation”) was 10.8 nM. In the case of B2, the “Reporter Activation” value is reported as 14.7 nM. B3 was tested, and the “Reporter Activation” value was 23.4 nM. With B4 the “Reporter Activation” value was 13.2 nM. For B5, the “Reporter Activation” value was 11.1 nM. With B6 the “Reporter Activation” value was 7.58 nM. B7 was tested, and the “Reporter Activation” value was 9.11 nM. In the case of B8, the “Reporter Activation” value is reported as 7.35 nM. For B9, the “Reporter Activation” value was 12.1 nM. B10 was tested, and the “Reporter Activation” value was 9.13 nM.

What follows are binders tested against T1, biotin-labeled human PD-1 Fc protein (assay: competition ELISA: blocks biotin PD-1-Fc binding to coated PD-L1-Fc).
Experimental: The next day, plates were washed with wash buffer (PBS+0.05% Tween-20, PBST), and blocked with 5% non-fatty milk in PBST for 2 hours at 37° C. Plates were then washed again using wash buffer.
After incubation at 37° C. for 40 minutes, plates were washed for 4 times using wash buffer. […] Plates were washed again using wash buffer. Finally, TMB was added and the reaction was stopped using 1M H_2SO_4, and the absorbance was read at 450 nm. Data were analyzed using Graphpad Prism software and $IC50$ values were reported.
Binder B1 has an IC50 of 0.2 nM. In the case of B2, the IC50 is reported as 0.21 nM. Binder B3 has an IC50 of 0.23 nM. Binder B4 has an IC50 of 0.43 nM. With B5 the IC50 was 0.25 nM. B6 showed an IC50 of 0.21 nM. With B7 the IC50 was 0.26 nM. With B8 the IC50 was 0.21 nM. In the case of B9, the IC50 is reported as 0.27 nM. B10 gave an IC50 of 0.22 nM.

These binders were tested against T2, cynomolgus monkey PD-1-his protein (Acro biosystems, #PD-1-C5223) (cynomolgus monkey, UniProt B0LAJ3 25-170) (assay: SPR (Biacore T200), antibody captured, antigen flowed).
T2 construct: Bought protein; also called Cynomolgus PD-1; Cynomolgus PD1
From the text: (§1) Briefly, goat […] (GE healthcare, Cat #BR100839, Human Antibody Capture Kit) was covalently linked to a CM5 chip (carboxy methyl dextran coated chip) via primary amines, using a standard amine coupling kit (GE healthcare, Pittsburgh, PA, USA) provided by Biacore. Unreacted moieties on the biosensor surface were blocked with ethanolamine. […] Then, recombinant human PD-1-his (Sino biological, #10377-H08H) or cynomolgus monkey PD-1-his protein (Acro biosystems, #PD-1-C5223) in HBS EP buffer (provided by Biacore) was flowed onto the chip at a flow rate of 30 μL/min. The antigen-antibody association kinetics was followed for 2 minutes and the dissociation kinetics was followed for 10 minutes. The association and dissociation curves were fit to a 1:1 *Langmuir* binding model using BIA evaluation software.
For B1, the Kd was 112 nM, the koff was 0.00292 s⁻¹ and the kon was 26000 M⁻¹ s⁻¹. Binder B2 has a Kd of 116 nM, a koff of 0.00238 s⁻¹ and a kon of 20600 M⁻¹ s⁻¹. Binder B3 has a Kd of 14.6 nM, a koff of 0.0047 s⁻¹ and a kon of 322000 M⁻¹ s⁻¹. Work on B4 yielded a Kd of 17.3 nM, a koff of 0.00521 s⁻¹ and a kon of 301000 M⁻¹ s⁻¹. B5 was tested, and the Kd was 12.5 nM, the koff was 0.00298 s⁻¹ and the kon was 238000 M⁻¹ s⁻¹. In the case of B6, the Kd is reported as 18.1 nM, the koff is reported as 0.00249 s⁻¹ and the kon is reported as 138000 M⁻¹ s⁻¹. With B7 the Kd was 3.9 nM and the kon was 203000 M⁻¹ s⁻¹. In the case of B8, the Kd is reported as 31.7 nM, the koff is reported as 0.00632 s⁻¹ and the kon is reported as 200000 M⁻¹ s⁻¹. B9 showed a Kd of 9.5 nM, a koff of 0.00331 s⁻¹ and a kon of 348000 M⁻¹ s⁻¹. B10 gave a Kd of 11.3 nM, a koff of 0.00236 s⁻¹ and a kon of 210000 M⁻¹ s⁻¹.

Each binder was assayed against T3, recombinant human PD-1-his (Sino biological, #10377-H08H) (human, UniProt Q15116 25-167) in the same assay as above.
T3 construct: Bought protein; also called Human PD-1-his protein; not shown: his tag
From the text: as §1
In the case of B1, the Kd is reported as 2.83 nM, the koff is reported as 0.000577 s⁻¹ and the kon is reported as 204000 M⁻¹ s⁻¹. B2 showed a Kd of 1.77 nM, a koff of 0.000307 s⁻¹ and a kon of 173000 M⁻¹ s⁻¹. For B3, the Kd was 0.88 nM, the koff was 0.000203 s⁻¹ and the kon was 231000 M⁻¹ s⁻¹. B4 gave a Kd of 2.3 nM, a koff of 0.000359 s⁻¹ and a kon of 156000 M⁻¹ s⁻¹. B5 was tested, and the Kd was 2.88 nM, the koff was 0.000442 s⁻¹ and the kon was 153000 M⁻¹ s⁻¹. B6 gave a Kd of 0.372 nM, a koff of 0.000131 s⁻¹ and a kon of 353000 M⁻¹ s⁻¹. Work on B7 yielded a Kd of 0.342 nM, a koff of 5.88e-05 s⁻¹ and a kon of 172000 M⁻¹ s⁻¹. With B8 the Kd was 1.05 nM, the koff was 0.000203 s⁻¹ and the kon was 194000 M⁻¹ s⁻¹. With B9 the Kd was 1.13 nM, the koff was 0.000189 s⁻¹ and the kon was 168000 M⁻¹ s⁻¹. Work on B10 yielded a Kd of 2.06 nM, a koff of 0.000386 s⁻¹ and a kon of 188000 M⁻¹ s⁻¹.
